Assay [1] has as its target ACTR-Avi (Avi-tagged, biotinylated, Cy3B-labelled ACTR) (human). The experiment in a line: FRET or BRET. A general note: In BRET a luciferase serves as donor, and the signal depends on an acceptor being close.
The target in assay [2] is T1, NCBD1 NCBD (Mus musculus, UniProt P45481).
T1 chain: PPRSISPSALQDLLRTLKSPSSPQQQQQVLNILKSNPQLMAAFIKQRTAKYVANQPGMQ

The target in assay [3] is T2, NCBD2 NCBD (Mus musculus, UniProt P45481).
T2 chain: T1 chain

In general, kon refers to the second-order rate constant of association. High values mean fast association, low ones slow association. For the molecule “NCBD wt (single-cysteine variant labelled with CF680R) (domain or fragment)”, the kon in assay [1] is 2.9e+08 M⁻¹ s⁻¹.

B1: ACTR ACTR (protein)
chain: GTQNRPLLRNSLDDLVGPPSNLEGQSDERALLDQLHTLLSNTDATGLEEIDRALGIPELVNQGQALEPKQD
What is called Kd is the equilibrium constant for the complex coming apart. A lower Kd goes with tighter binding. In the case of B1, the Kd was determined as 78 nM in assay [2] and 650 nM in assay [3].

These data come from paper PMC6102232 (2018).
